Test results reported in paper PMC7824358, “The Influence of the Mixed DPC:SDS Micelle on the Structure and Oligomerization Process of the Human Cystatin C” (Membranes, 2020).

How the values were obtained:
[1] = biological target: human cystatin C V57P variant (human) (UniProt P01034); assay: SEC; analytical gel filtration, Superdex 75 PC 3.2/30, eluted with PBS; protein 30 μM in PBS incubated 24 h at 22 °C with dilution series of DPC:SDS (5:1) mixed micelle, DPC or SDS; dimer retention ca. 13.5 min, monomer ca. 16 min; dimer to monomers
[2] = biological target: the molecule itself; assay: SEC; hCC WT incubated 24 h in 25 mM sodium acetate buffer pH 4.0, 150 mM NaCl, 1 mM benzamidine hydrochloride; dimer separated from monomer on Superdex 75 10/300 GL; monomer to dimer

| stoichiometry N [1] | Molecule | stoichiometry N [2] |
| --- | --- | --- |
| 2 | human cystatin C V57P variant (from UniProt P01034 27-146) (natural protein) | – |
| – | human cystatin C (hCC) wild-type (natural protein, UniProt P01034 27-146, looked up, human cystatin C, expressed from the pHD313 vector behind the E. coli OmpA signal peptide; Used as a monomer sample and as a dimer sample made by incubation at pH 4.0 and separated by SEC; also called hCC WT; WT) SSPGKPPRLVGGPMDASVEEEGVRRALDFAVGEYNKASNDMYHSRALQVVRARKQIVAGVNYFLDVELGRTTCTKTQPNLDNCPFHDQPHLKRKAFCSFQIYAVPWQGTMTLSKSTCQDA | 2 |
